# From patent US20240287172A1 (SCIRHOM, published 2024)
# Substitutions are numbered along the chain they refer to.
# T1: hiR2-FL-M534S-T7 (human, UniProt Q6PJF5 1-856)
# T1 sequence: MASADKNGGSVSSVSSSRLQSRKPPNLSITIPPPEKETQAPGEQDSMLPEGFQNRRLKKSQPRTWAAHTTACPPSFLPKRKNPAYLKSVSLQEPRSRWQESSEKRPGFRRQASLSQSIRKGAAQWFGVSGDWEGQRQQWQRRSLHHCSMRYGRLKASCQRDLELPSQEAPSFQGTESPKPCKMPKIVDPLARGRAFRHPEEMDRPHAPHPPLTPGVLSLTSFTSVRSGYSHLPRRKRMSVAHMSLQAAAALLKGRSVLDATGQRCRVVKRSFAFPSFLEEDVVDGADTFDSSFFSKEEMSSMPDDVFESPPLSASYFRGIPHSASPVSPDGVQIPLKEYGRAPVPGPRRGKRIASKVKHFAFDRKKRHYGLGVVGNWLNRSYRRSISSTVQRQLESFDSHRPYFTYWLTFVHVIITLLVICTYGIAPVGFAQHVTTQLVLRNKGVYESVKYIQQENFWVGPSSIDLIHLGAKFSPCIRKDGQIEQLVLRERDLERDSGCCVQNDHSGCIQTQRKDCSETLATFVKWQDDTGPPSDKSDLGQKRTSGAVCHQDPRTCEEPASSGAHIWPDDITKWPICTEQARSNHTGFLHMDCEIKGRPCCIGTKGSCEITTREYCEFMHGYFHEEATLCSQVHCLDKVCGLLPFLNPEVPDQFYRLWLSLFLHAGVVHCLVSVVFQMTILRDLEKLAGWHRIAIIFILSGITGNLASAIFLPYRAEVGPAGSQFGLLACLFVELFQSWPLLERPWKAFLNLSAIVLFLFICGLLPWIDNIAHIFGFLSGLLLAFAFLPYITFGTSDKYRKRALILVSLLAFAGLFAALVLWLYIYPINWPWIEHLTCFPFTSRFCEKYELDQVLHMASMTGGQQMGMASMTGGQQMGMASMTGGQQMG
# T2: hiR1-FL-WT-T7 (human, UniProt Q96CC6 1-855)
# T2 construct: on MEF-DKO cells
# T2 sequence: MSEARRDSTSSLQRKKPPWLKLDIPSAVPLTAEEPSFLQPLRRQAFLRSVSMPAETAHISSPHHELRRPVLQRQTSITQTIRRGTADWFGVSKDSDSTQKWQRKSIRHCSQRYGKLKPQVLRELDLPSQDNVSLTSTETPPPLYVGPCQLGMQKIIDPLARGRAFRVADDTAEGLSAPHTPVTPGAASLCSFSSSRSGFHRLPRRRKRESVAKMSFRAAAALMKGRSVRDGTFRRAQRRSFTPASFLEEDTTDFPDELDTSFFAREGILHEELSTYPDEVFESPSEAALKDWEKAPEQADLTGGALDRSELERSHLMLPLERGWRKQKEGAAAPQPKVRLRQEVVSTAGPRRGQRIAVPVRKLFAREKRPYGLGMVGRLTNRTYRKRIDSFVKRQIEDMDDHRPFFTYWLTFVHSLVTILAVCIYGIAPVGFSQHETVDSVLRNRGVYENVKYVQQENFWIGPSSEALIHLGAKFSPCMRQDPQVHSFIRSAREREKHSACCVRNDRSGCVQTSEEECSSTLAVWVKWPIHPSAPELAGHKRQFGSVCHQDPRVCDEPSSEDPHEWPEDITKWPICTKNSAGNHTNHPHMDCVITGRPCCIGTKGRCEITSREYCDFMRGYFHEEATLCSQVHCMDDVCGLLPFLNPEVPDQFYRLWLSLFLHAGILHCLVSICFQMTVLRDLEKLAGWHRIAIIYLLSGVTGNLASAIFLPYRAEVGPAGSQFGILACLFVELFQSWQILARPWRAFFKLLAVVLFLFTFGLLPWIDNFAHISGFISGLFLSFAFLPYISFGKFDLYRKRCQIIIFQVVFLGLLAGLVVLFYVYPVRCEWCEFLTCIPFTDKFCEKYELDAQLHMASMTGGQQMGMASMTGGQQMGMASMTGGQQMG
# T3: hiR2-FL-L539A-T7 (human, UniProt Q6PJF5 1-856)
# T3 construct: on MEF-DKO cells
# T3 sequence: T1 sequence with S534M, L539A
# B1: antibody 5 (antibody, V domains shown)
# VH: QVTLKESGPGILQPSQTLSLTCSFSGFSLSTFGMGVGWIRQPSGKGLEWLAHIWWDDEKYYNSALKSRLTISKATSKNQAFLKIANVDTADTATYYCARISNYGSNYWYFNVWGTGTTVTVSS
# VL: QVVLTQSPALMSASPGEKVTMTCSAGSSVSCMYWYQQKPGSSPRVLIYDTSNLASGVPARFTGSGSGTSYSLTISRMEAEDAASYYCQQWNSYPLTFGAGTKLELK
# notes: mouse IgG, kappa light chain; also called clone #5; purified antibody 5
# B2: antibody 3 (antibody, V domains shown)
# VH: QVTLKESGPGILQPSQTLSLTCSFSGFSLTTFAMGIGWVRQPSGKGLEWLAHIWWDGEKYNNPVLKSRLTISKDTSKNQVFLRIANVDTPDTATYYCARISSIYYIIDNWGQGTSVTVSS
# VL: DIVLTQSPATLSVTPGHSVSLSCRASQSISNNLHWYQKKSHESPRLLIKYVSQSISGIPSRFSGSGSGTDFTLSINSVETEDFGMYFCQQSYNWPLTFGAGTKLELK
# notes: mouse IgG, kappa light chain; also called clone #3; purified antibody 3
# Key:
# hiR2-FL-M534S-T7 = target: T1, hiR2-FL-M534S-T7; experiment: FACS, MEF-DKO cells, 3 µg/ml
# hiR1-FL-WT-T7 = target: T2, hiR1-FL-WT-T7; experiment: FACS on MEF-DKO-hiR1-FL-WT-T7 cells
# hiR2-FL-L539A-T7 = target: T3, hiR2-FL-L539A-T7; experiment: FACS on MEF-DKO-hiR2-FL-L539A-T7 cells
binder,measurement,setting,value
B1,loss of binding vs wild type,hiR2-FL-M534S-T7,≥ 30%
B2,binding result,hiR1-FL-WT-T7,no binding (tested: 3 µg/ml)
same,binding result,hiR2-FL-L539A-T7,no binding (tested: 3 µg/ml)
